Earlier results on one substance are cited in publication PMC4125106.

In this series the target is insulin receptor (Drosophila melanogaster) (UniProt P09208). Description: competitive binding.
Chain of UniProt P09208 (P09208 44-1310): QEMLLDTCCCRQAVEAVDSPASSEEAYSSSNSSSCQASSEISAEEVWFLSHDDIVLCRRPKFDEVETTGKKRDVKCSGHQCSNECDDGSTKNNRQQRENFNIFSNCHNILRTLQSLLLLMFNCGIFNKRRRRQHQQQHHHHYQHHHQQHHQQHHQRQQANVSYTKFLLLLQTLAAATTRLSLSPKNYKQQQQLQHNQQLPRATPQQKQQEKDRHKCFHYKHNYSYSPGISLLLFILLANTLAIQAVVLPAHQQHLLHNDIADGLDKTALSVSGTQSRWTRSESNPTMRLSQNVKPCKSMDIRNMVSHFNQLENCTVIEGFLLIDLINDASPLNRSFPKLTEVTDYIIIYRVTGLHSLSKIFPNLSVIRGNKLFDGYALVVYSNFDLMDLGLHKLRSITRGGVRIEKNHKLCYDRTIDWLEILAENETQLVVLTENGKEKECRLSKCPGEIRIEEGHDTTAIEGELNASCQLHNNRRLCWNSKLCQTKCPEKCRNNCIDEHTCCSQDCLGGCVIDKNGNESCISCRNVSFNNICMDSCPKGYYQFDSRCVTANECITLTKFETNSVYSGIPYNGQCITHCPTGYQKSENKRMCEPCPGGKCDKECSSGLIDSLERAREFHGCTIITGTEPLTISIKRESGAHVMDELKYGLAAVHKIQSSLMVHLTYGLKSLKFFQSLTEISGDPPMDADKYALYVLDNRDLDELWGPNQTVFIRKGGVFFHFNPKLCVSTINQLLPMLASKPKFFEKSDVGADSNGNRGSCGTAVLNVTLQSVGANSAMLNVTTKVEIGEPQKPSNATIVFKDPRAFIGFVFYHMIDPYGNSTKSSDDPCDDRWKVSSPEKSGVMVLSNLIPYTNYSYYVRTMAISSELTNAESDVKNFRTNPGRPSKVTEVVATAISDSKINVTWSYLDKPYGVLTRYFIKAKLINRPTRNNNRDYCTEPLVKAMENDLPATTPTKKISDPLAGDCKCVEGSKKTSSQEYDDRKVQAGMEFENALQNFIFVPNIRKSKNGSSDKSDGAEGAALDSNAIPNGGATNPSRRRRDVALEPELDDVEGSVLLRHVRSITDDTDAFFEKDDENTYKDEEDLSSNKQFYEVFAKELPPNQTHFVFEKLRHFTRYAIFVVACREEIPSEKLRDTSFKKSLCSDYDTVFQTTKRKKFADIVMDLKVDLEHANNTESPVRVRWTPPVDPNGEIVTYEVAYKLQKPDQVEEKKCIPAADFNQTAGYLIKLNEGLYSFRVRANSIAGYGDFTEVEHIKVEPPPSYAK

Ilp5 (from UniProt Q7KUD5): the Kd was 0.555 nM.

A word on the Kd: it is a measure of binding affinity in units of concentration.
